Consider one substance from article PMC2811064.

The assay has as its target semi-synthetic KcsA^(70,82) channel (UniProt P0A334). Put plainly: SDS-PAGE.

Usually stoichiometry N stands for the number of molecules, sites or subunits per partner or assembly. In the case of “semi-synthetic KcsA^(70,82) channel (from UniProt P0A334 1-69; P0A334 82-160) (natural protein)”, the stoichiometry N was 4.
